Positions count from the first letter of the chain named. In names and notes the source's numbering stands.
B1: ScPCNA (natural protein, Saccharomyces cerevisiae, UniProt P15873 1-258, looked up)
chain: MLEAKFEEASLFKRIIDGFKDCVQLVNFQCKEDGIIAQAVDDSRVLLVSLEIGVEAFQEYRCDHPVTLGMDLTSLSKILRCGNNTDTLTLIADNTPDSIILLFEDTKKDRIAEYSLKLMDIDADFLKIEELQYDSTLSLPSSEFSKIVRDLSQLSDSINIMITKETIKFVADGDIGSGSVIIKPFVDMEHPETSIKLEMDQPVDLTFGAKYLLDIIKGSSLSDRVGIRLSSEAPALFQFDLKSGFLQFFLAPKFNDEE
notes: proliferating cell nuclear antigen (PCNA), Saccharomyces cerevisiae; also called S. cerevisiae PCNA; source: E. coli BL21-DE3, purified
B2: ScPolη: Saccharomyces cerevisiae DNA polymerase eta (protein)
chain: MSKFTWKELIQLGSPSKAYESSLACIAHIDMNAFFAQVEQMRCGLSKEDPVVCVQWNSIIAVSYAARKYGISRMDTIQEALKKCSNLIPIHTAVFKKGEDFWQYHDGCGSWVQDPAKQISVEDHKVSLEPYRRESRKALKIFKSACDLVERASIDEVFLDLGRICFNMLMFDNEYELTGDLKLKDALSNIREAFIGGNYDINSHLPLIPEKIKSLKFEGDVFNPEGRDLITDWDDVILALGSQVCKGIRDSIKDILGYTTSCGLSSTKNVCKLASNYKKPDAQTIVKNDCLLDFLDCGKFEITSFWTLGGVLGKELIDVLDLPHENSIKHIRETWPDNAGQLKEFLDAKVKQSDYDRSTSNIDPLKTADLAEKLFKLSRGRYGLPLSSRPVVKSMMSNKNLRGKSCNSIVDCISWLEVFCAELTSRIQDLEQEYNKIVIPRTVSISLKTKSYEVYRKSGPVAYKGINFQSHELLKVGIKFVTDLDIKGKNKSYYPLTKLSMTITNFDIIDLQKTVVDMFGNQVHTFKSSAGKEDEEKTTSSKADEKTPKLECCKYQVTFTDQKALQEHADYHLALKLSEGLNGAEESSKNLSFGEKRLLFSRKRPNSQHTATPQKKQVTSSKNILSFFTRKK
modifications: left off: GST, N-terminal, state not stated
notes: Saccharomyces cerevisiae DNA polymerase eta
B3: CaPCNA (natural protein, Candida albicans, UniProt Q5AMN0 1-259, looked up)
chain: MLEGKFEEAALLKKVVEAIKDCVKKCNFNCSEHGITVQAVDDSRVLLVSLLIGQTSFSEYRCDRDVTLGIDLESFSKIIKSANNEDFLTLLAEDSPDQIMAILEEKQKEKISEYSLKLMDIDSEFLQIDDMEYDAVVNMPSSDFAKLVRDLKNLSESLRVVVTKDSVKFTSEGDSGSGSVILKPYTNLKNERESVTISLDDPVDLTFGLKYLNDIVKAATLSDVITIKLADKTPALFEFKMQSGGYLRFYLAPKFDDDE
notes: proliferating cell nuclear antigen (PCNA), Candida albicans; also called C. albicans PCNA; source: E. coli BL21-DE3, purified
B4: 29-mer ubz peptide of CaPolη (607-635) (peptide)
peptide: KTKKCSRCKLSVDDPVEHNDYHIAMDLSN
notes: also called wild-type ubz peptide; WT UBZ peptide; source: synthetic peptide (China peptides Co Ltd, 98% purity)
B5: CaPCNA-90 (P253A, K254A) (natural protein)
chain: B3 chain with P253A, K254A
notes: source: E. coli BL21-DE3, purified

Columns and labels:
CaPCNA [1] = test: ITC binding to CaPCNA; set-up: species or system Candida albicans; details: 25 °C, pH 7.4, CaPCNA injected, about 10 μM Polη mutant in cell, negatives repeated at various concentrations
Description: To identify a region of CaPolη involved in PCNA interaction, we generated a deletion construct by inserting a stop codon at amino acid position 513 (K513) of CaPolη. […] The wild-type and truncated CaPolη were purified, and their interaction with CaPCNA was monitored by isothermal calorimetry (ITC) analysis. […] Since CaPolη functionally complements ScPolη and protects the fungal cells from UV-induced DNA damages ([17], [25], [26]), to further strengthen our finding, various Polη orfs were expressed under the constitutive ADH1 promoter in rad30Δ and rad30Δrev3Δ S. cerevisiae strains, and susceptibility to UV irradiation was determined.
To map the precise location of PCNA binding, another deletant CaPolη 1 to 601 aa was constructed that lacks the last 39 residues encompassing the ubz domain but retains Seq-3 and Seq-4 (Fig. 2A). […] To ascertain the function of ubz domain, two D626A and H624A, H628A of CaPolη mutants were generated and their ability to suppress UV sensitivity of Polη-deficient S. cerevisiae strains was examined. […] Similarly, UV-induced mutation rate was estimated by counting the number of canavanine-resistant colonies of various S. cerevisiae strains harboring CaPolη constructs. […] Subsequently, ITC and GST-pull-down assays were carried out to determine the role of ubz in PCNA binding.

[2] = molecular target: B4; test: ITC; PCNA (200 μM, counted as a trimer) in the syringe, Polη (10 μM) or ubz peptide (20 μM) in the cell; 25 injections of 1.5 μl; 25 °C; 20 mM HEPES pH 7.4, 150 mM NaCl; single-site binding model; details: both partners purified
ScPolη = molecular target: T1, ScPolη (Saccharomyces cerevisiae, UniProt Q04049 1-632); test: as above; details: both partners purified
T1 construct: DNA polymerase eta (Rad30), Saccharomyces cerevisiae, 632 aa, wild type; also called ScRad30; S. cerevisiae DNA polymerase eta; source: purified
T1 sequence (looked up): B2 chain

ScPCNA [3] = molecular target: T2, ScPCNA (Saccharomyces cerevisiae, UniProt P15873); test: ITC binding to ScPCNA; details: 25 °C
T2 construct: made in house; host or cells: E. coli BL21-DE3
T2 sequence (P15873 1-258): B1 chain
Description: To understand whether any sequence or structural differences of the ubz domains in these Polηs have an impact on functional differences, we used the solution structure of the ubz domain of human Polη as a template and determined the structure of the ubz domain of both Sc- and Ca-Polηs by computational modeling (Fig. 3A). […] The two cysteines are located on the fingertip made by the two β-strands, and the two histidines are located on the α-helix. […] Next we examined whether the ubz peptide can inhibit the binding of PCNA to Polη. An equimolar mixture of the ubz peptide and PCNA was injected into the calorimetric cell having CaPolη to examine the interference of peptide on the interaction between PCNA and Polη by ITC.
All the purified proteins and purchased peptides were dialyzed overnight against 1 l of a buffer containing 20 mM HEPES (pH 7.4) and 150 mM NaCl at 4 °C to ensure complete removal of DTT and glycerol from the protein storage buffer, which could affect the heat exchange while they interact. ITC assays were performed using a Malvern MicroCal PEAQ-ITC calorimeter. Before the experiment, the cell and the syringe were thoroughly washed with water, followed by cell rinsing with a buffer. A control run was carried out to make sure that the buffer is not participating in heat change where the cell was filled with 300 μl of a buffer and concentrated CaPCNA or ScPCNA protein (200 μM) in the syringe. ITC was performed using various Polηs or UBZ peptide or UBZ mutant peptide in the sample cell and CaPCNA or ScPCNA or a mixture of CaPCNA+ WT UBZ peptide in the syringe. Twenty-five injections of 1.5 μl of protein from the syringe were given at intervals of 120 s with an initial delay of 120 s at 25 °C. The data were analyzed to determine the various kinetic parameters using a single-site binding model provided in the ITC analysis software package.

[4] = molecular target: wild-type CaPolη protein (1–640 aa) (Candida albicans); test: ITC; PCNA (200 μM, counted as a trimer) in the syringe, Polη (10 μM) or ubz peptide (20 μM) in the cell; 25 injections of 1.5 μl; 25 °C; 20 mM HEPES pH 7.4, 150 mM NaCl; single-site binding model
[5] = molecular target: the molecule itself; test: SEC; about 10 μg of purified CaPCNA and CaPolη (1:1 M ratio) incubated 60 min at room temperature, or CaPCNA alone; Superdex 200 PC3.2/30; 50 mM HEPES pH 7.5, 150 mM NaCl, 10% glycerol; 0.05 ml/min, 4 °C
CaPCNA-90 (P253A, K254A) = molecular target: B5; test: ITC; PCNA (200 μM, counted as a trimer) in the syringe, Polη (10 μM) or ubz peptide (20 μM) in the cell; 25 injections of 1.5 μl; 25 °C; 20 mM HEPES pH 7.4, 150 mM NaCl; single-site binding model; details: both partners purified
ScPCNA [6] = molecular target: B1; test: as above; details: both partners purified
CaPCNA [7] = molecular target: B3; test: as above; details: both partners purified

607-KTKKCSRCKLSVDDPVEANDYAIAMDLSN-635 [mutant peptide]
Binding to CaPCNA by ITC (in words) (CaPCNA [1]): did not show any sign of binding

B1
dH [2]: -24.2 kcal/mol | stoichiometry N [2]: 0.34 | Kd (ScPolη): 15.1 µM | dH (ScPolη): -79.9 kcal/mol | stoichiometry N (ScPolη): 0.31

B2
Kd (ScPCNA [3]; 20 mM HEPES pH 7.4, 150 mM NaCl, syringe ScPCNA 200 μM, cell 10 μM ScPolη or 20 μM ubz peptide, single-site model, repeated twice): 15.1 µM | Stoichiometry (ScPCNA [3]; pH 7.4, ScPCNA 200 μM in syringe): 0.31 | ΔG (ScPCNA [3]; pH 7.4, ScPCNA, unit not given): −6.58 | ΔH (ScPCNA [3]; pH 7.4, ScPCNA, unit not given): −79.9 | −TΔS (ScPCNA [3]; pH 7.4, ScPCNA, unit not given): 73.3

B3
Kd [4]: 7.15 µM | dH [4]: -22.1 kcal/mol | stoichiometry N [4]: 0.315 | dH [2]: -80 kcal/mol | stoichiometry N [2]: 0.355 | stoichiometry N [5]: 3

B4
Kd (CaPCNA-90 (P253A, K254A)): 39 µM | Kd (ScPCNA [6]): 15.6 µM | Kd (CaPCNA [7]): 19.8 µM

B5
dH [2]: -79.9 kcal/mol | stoichiometry N [2]: 0.316
